# From article PMC10380284, “Investigating the Prevalence of RNA-Binding Metabolic Enzymes in E. coli” (International Journal of Molecular Sciences, 2023)
# T1: quinone oxidoreductase (QorA) (Escherichia coli, UniProt P28304)
# T1 construct: full-length ORF from ASKA library (pCA24N), N-terminal His-tag, expressed in E. coli BL21-Gold (DE3), IMAC and size exclusion
# T1 sequence (P28304 1-327): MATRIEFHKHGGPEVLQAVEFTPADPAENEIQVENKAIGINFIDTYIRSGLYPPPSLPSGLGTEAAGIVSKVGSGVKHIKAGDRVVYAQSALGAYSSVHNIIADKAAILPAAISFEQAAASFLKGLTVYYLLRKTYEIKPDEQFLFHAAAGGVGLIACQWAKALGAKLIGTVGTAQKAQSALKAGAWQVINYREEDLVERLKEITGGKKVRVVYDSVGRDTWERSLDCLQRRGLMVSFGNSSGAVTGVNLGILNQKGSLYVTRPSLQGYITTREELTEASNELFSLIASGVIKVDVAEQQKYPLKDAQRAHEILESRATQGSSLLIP
# T2: Phosphoglycerate kinase Pgk (Escherichia coli K12, UniProt P0A799 1-387)
# T2 sequence: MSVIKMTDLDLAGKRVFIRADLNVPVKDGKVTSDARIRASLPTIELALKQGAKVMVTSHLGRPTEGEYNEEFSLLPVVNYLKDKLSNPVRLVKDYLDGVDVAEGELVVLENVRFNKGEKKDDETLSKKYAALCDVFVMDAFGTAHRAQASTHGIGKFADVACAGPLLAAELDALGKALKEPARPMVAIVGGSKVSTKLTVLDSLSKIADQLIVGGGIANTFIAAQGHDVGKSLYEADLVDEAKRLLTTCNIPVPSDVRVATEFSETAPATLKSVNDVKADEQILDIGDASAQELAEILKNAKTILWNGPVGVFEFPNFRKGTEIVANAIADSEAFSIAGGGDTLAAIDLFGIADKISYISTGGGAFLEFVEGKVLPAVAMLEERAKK
# T3: Quinone oxidoreductase QorA (Escherichia coli K12, UniProt P28304 1-327)
# T3 sequence: T1 sequence (P28304 1-327)
# Experiments:
# [1] = target: T1, quinone oxidoreductase (QorA); assay: NMR shift experiment; also competition with RNA in EMSA and MST; assay type: binding; settings: 10-20 mM NADPH in the EMSA / MST competition with yffO mRNA fragment; pH 7.5
# [2] = target: T2, Phosphoglycerate kinase Pgk; assay: EMSA; 30 uM Pgk, 7 uM RNA; stronger than hairpins; 50 mM Tris (HEPES for PykF), 80 mM NaCl, 10 mM KCl, 0.8 mM MgCl2, 0.5 mM DTT, pH 7.5, 30 min at 37 C (EMSA); MST same buffer + 0.05% Tween-20; settings: protein: recombinant; tags: N-terminal His (pCA24N, ASKA); label: 5' 32P; linear
# [3] = target: T3, Quinone oxidoreductase QorA; assay: EMSA; 350 nM RNA; 50 mM Tris (HEPES for PykF), 80 mM NaCl, 10 mM KCl, 0.8 mM MgCl2, 0.5 mM DTT, pH 7.5, 30 min at 37 C (EMSA); MST same buffer + 0.05% Tween-20; settings: protein: recombinant; tags: N-terminal His (pCA24N, ASKA); label: 5' 32P
# [4] = target: T3, Quinone oxidoreductase QorA; assay: MST; 0.05% Tween-20; 10 nM RNA; 50 mM Tris (HEPES for PykF), 80 mM NaCl, 10 mM KCl, 0.8 mM MgCl2, 0.5 mM DTT, pH 7.5, 30 min at 37 C (EMSA); MST same buffer + 0.05% Tween-20; settings: protein: recombinant; tags: N-terminal His (pCA24N, ASKA); label: Cy5
# MS2 phage coat protein = MS2 phage coat protein (bacteriophage MS2, UniProt P03612 2-130); assay: EMSA; 0.34-34 uM protein, 700 nM RNA; 50 mM Tris (HEPES for PykF), 80 mM NaCl, 10 mM KCl, 0.8 mM MgCl2, 0.5 mM DTT, pH 7.5, 30 min at 37 C (EMSA); MST same buffer + 0.05% Tween-20; settings: protein: recombinant; chain copies: 2; label: 5' 32P; hairpin
# MS2 phage coat protein, sequence (P03612 2-130): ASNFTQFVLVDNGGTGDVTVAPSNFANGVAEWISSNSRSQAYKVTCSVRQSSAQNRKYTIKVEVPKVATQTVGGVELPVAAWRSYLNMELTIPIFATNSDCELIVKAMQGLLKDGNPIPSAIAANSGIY
molecule,measurement,setting,value
NC(=O)C1=CN([C@@H]2O[C@H](COP(=O)(O)OP(=O)(O)OC[C@H]3O[C@@H](n4cnc5c(N)ncnc54)[C@H](OP(=O)(O)O)[C@@H]3O)[C@@H](O)[C@H]2O)C=CC1 [NADPH],NMR shift experiment; also competition with RNA in EMSA and MST,[1],NMR shift experiments that revealed larger peak shifts for the QorA-NADPH complex
AGGACAAAAACAA (ssRNA) [A-rich linear control RNA],binding result,[2],binds
"GGAGCAUAUGGACUUCAGGGAAGGGAU (ssRNA) [yffO mRNA fragment, 27 nt]",Kd,[3],~7 µM
GGAGCAUAUGGACUUCAGGGAAGGGAU (ssRNA) [Cy5-yffO mRNA fragment],Kd,[4],~7 µM
GCACGCGUAUUCACUGAGCAUCAGCCAGACUGUGU (ssRNA) [rffG mRNA fragment],binding result,MS2 phage coat protein,binds
